Assay results published in PMC3946054 (Structure (London, England : 1993), 2013).
Like-named read-outs stand apart in the source and are kept apart here.

Key:
[1] = molecular target: T1, SCaMC-1 transmembrane domain (TMD), residues 185-477, incorporated in POPC/POPG/cardiolipin liposomes (human, UniProt Q6NUK1 185-477); assay: SPR
T1 sequence (looked up): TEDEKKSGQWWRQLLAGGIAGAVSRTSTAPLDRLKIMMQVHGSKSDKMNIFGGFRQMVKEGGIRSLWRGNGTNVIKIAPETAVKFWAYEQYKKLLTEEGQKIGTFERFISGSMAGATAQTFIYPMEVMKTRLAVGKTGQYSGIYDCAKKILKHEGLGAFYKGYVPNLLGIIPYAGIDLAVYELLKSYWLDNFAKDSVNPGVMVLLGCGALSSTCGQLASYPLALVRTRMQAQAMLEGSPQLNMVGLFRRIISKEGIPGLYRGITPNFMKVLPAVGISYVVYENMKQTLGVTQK

[2] = molecular target: T1, SCaMC-1 transmembrane domain (TMD), …; assay: SPR; remark: listed apart in the source

Kd [1]: 5.6 mM
Kd [2]: 0.25 mM
B1: Human SCaMC-1 N-terminal domain (NTD), residues 1-193 (domain or fragment, UniProt Q6NUK1 1-193, looked up)
chain: MLRWLRDFVLPTAACQDAEQPTRYETLFQALDRNGDGVVDIGELQEGLRNLGIPLGQDAEEKIFTTGDVNKDGKLDFEEFMKYLKDHEKKMKLAFKSLDKNNDGKIEASEIVQSLQTLGLTISEQQAELILQSIDVDGTMTVDWNEWRDYFLFNPVTDIEEIIRFWKHSTGIDIGDSLTIPDEFTEDEKKSGQ
